Results as given in the supplement of paper PMC10567573.

B1: IRX6 (parent)
chain: YPCLEKPRIWSLAHTATASAVEGA

Variants of: B1
Assay: protein stability index of a GFP-peptide fusion (GPS, HEK-293T) (PSI 1-6); higher = more stable
Details: c terminus: a fixed tail appended
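Further: lentivirally expressed fusions sorted by FACS into six bins by GFP to DsRed ratio, PSI derived from sequencing read proportions per bin multiplied by bin number.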

In order of rising protein stability index:
1. YPCLEKPRIWSLAHTATASALEGA  1.1
2. YPCLEKPRIWSLAHLATASAVEGA  1.12
3. YPCLEKPRIWSLAHTATASACEGA  1.23
4. YPCLEKPRHWSLAHTATASAVEGA  1.25
5. YPCLEKPRIWSLAHTALASAVEGA  1.25
6. YPCLEKPRIWALAHTATASAVEGA  1.3
7. YPCLEKPRIWSLMHTATASAVEGA  1.35
8. YPCLEKPRIWSLAITATASAVEGA  1.41
9. YPCLEKPRIWSLAHTATASAKEGA  1.45
10. YPCLEKPRTWSLAHTATASAVEGA  1.51
11. YPCLEKPRIWSLAHTATASMVEGA  1.53
12. YPCLEKPRIWSLAHTPTASAVEGA  1.53
13. YPCLEKPRIWQLAHTATASAVEGA  1.53
14. YPCLEKPRIWSVAHTATASAVEGA  1.58
15. YPCLEKPRIWSLAHTATASASEGA  1.6
16. YPCLEKPRIWCLAHTATASAVEGA  1.61
17. YPCLEKPRIYSLAHTATASAVEGA  1.62
18. YPCLEKPRSWSLAHTATASAVEGA  1.65
19. YPCLEKPRIWSLAKTATASAVEGA  1.66
20. YPCLEKPRIWSLAHTATASFVEGA  1.69
21. YPCLEKPRIWSEAHTATASAVEGA  1.7
22. YPCLEKPRIWSLAHTAAASAVEGA  1.71
23. YPCLEKPRIWSNAHTATASAVEGA  1.72
24. YPCLEKPRIWSLAHIATASAVEGA  1.72
25. YPCLEKPRIWDLAHTATASAVEGA  1.74
26. YPCLEKPRIWSLAHGATASAVEGA  1.75
27. YPCLEKPRIWSLAHTHTASAVEGA  1.77
28. YPCLEKPRIWSLAHTATDSAVEGA  1.78
29. YPCLEKPRIWSLAHTATASAMEGA  1.82
30. YPCLEKPRIWSLAHTATASADEGA  1.82
31. YPCLEKPRIWMLAHTATASAVEGA  1.82
32. YPCLEKPRIWSLAHTASASAVEGA  1.83
33. YPCLEKPRIWSLAHTATADAVEGA  1.83
34. YPCLEKPRIWSLAETATASAVEGA  1.84
35. YPCLEKPRIWSLAHTATASEVEGA  1.86
36. YPCLEKPRIWHLAHTATASAVEGA  1.86
37. YPCLEKPRIWSLAHTLTASAVEGA  1.87
38. YPCLEKPRIWLLAHTATASAVEGA  1.87
39. YPCLEKPRIWSLAHTDTASAVEGA  1.89
40. YPCLEKPRIWSLAHTATAKAVEGA  1.9
41. YPCLEKPRIWSLAHTATARAVEGA  1.91
42. YPCLEKPRIWSLAHTSTASAVEGA  1.93
43. YPCLEKPRIWSLAHTITASAVEGA  1.94
44. YPCLEKPRIWFLAHTATASAVEGA  1.94
45. YPCLEKPRIWSLTHTATASAVEGA  1.96
46. YPCLEKPQIWSLAHTATASAVEGA  1.96
47. YPCLEKPRIWSLAHTATAEAVEGA  1.97
48. YPCLEKPRCWSLAHTATASAVEGA  1.98
49. YPCLEKPRIFSLAHTATASAVEGA  1.98
50. YPCLEKPRIWELAHTATASAVEGA  1.99
51. YPCLEKPRIWVLAHTATASAVEGA  1.99
52. YPCLEKPRIWSLAHTAKASAVEGA  2
53. YPCLEKPRIWSLADTATASAVEGA  2.01
54. YPCLEKPRIWSGAHTATASAVEGA  2.03
55. YPCLEKPRIWSLAHTATWSAVEGA  2.05
56. YPCLEKPRIWRLAHTATASAVEGA  2.05
57. YPCLEKPRIWSLAHTATAVAVEGA  2.07
58. YPCLEKPRIWSLAHTATASTVEGA  2.11
59. YPCLEKPRIWSLAHTCTASAVEGA  2.12
60. YPCLEKPRIWSLAHTATHSAVEGA  2.15
61. YPCLEKPRIWSLAHTATASAVDGA  2.16
62. YPCLEKPRIWYLAHTATASAVEGA  2.16
63. YPCLEKPRIWSLAHTADASAVEGA  2.17
64. YPCLEKPRIWSLEHTATASAVEGA  2.17
65. YPCLEKPYIWSLAHTATASAVEGA  2.17
66. YPCLEKPRIWSLASTATASAVEGA  2.18
67. YPCLEKPRIWSRAHTATASAVEGA  2.19
68. YPCLEKPRGWSLAHTATASAVEGA  2.2
69. YPCLEKPPIWSLAHTATASAVEGA  2.2
70. YPCLEKPRIWSLAHTATASAHEGA  2.21
71. YPCLEKPRIWSLAHTATASATEGA  2.23
72. YPCLEKPRIWSFAHTATASAVEGA  2.26
73. YPCLEKPRIWSLAHSATASAVEGA  2.26
74. YPCLEKPRRWSLAHTATASAVEGA  2.27
75. YPCLEKPRIWSLAHTATANAVEGA  2.27
76. YPCLEKPRQWSLAHTATASAVEGA  2.28
77. YPCLEKPRIWSLAHTATASAYEGA  2.29
78. YPCLEKPRIWSLAHTAWASAVEGA  2.29
79. YPCLEKPRYWSLAHTATASAVEGA  2.3
80. YPCLEKPRFWSLAHTATASAVEGA  2.3
81. YPCLEKPRIWNLAHTATASAVEGA  2.31
82. YPCLEKPRIWSLAMTATASAVEGA  2.34
83. YPCLEKPRIWSLAHWATASAVEGA  2.34
84. YPCLEKPRPWSLAHTATASAVEGA  2.35
85. YPCLEKPRIWSLPHTATASAVEGA  2.35
86. YPCLEKPRIWSLAHTAMASAVEGA  2.36
87. YPCLEKPRIWSMAHTATASAVEGA  2.36
88. YPCLEKPRIWSLAHTANASAVEGA  2.37
89. YPCLEKPRIWSLGHTATASAVEGA  2.44
90. YPCLEKPRIWSLAHTQTASAVEGA  2.45
91. YPCLEKPRKWSLAHTATASAVEGA  2.46
92. YPCLEKPRIWSLQHTATASAVEGA  2.46
93. YPCLEKPRNWSLAHTATASAVEGA  2.48
94. YPCLEKPVIWSLAHTATASAVEGA  2.48
95. YPCLEKPRIWSLAPTATASAVEGA  2.48
96. YPCLEKPRIWILAHTATASAVEGA  2.48
97. YPCLEKPRIWSLAHTATASIVEGA  2.52
98. YPCLEKPRIWSLAHTATAIAVEGA  2.52
99. YPCLEKPRIWSLAQTATASAVEGA  2.52
100. YPCLEKPRIWKLAHTATASAVEGA  2.58
101. YPCLEKPRIWSLAHTATKSAVEGA  2.59
102. YPCLEKPRIWSLAHTATASAREGA  2.62
103. YPCLEKPRIWSLAHTAYASAVEGA  2.64
104. YPCLEKPRIWSLAHTATNSAVEGA  2.65
105. YPCLEKPRIWSLAHTATASDVEGA  2.67
106. YPCLEKPRIWSLAHTKTASAVEGA  2.68
107. YPCLEKPRIWSLDHTATASAVEGA  2.71
108. YPCLEKPRIWSLAHTAPASAVEGA  2.72
109. YPCLEKPRIWSTAHTATASAVEGA  2.72
110. YPCLEKPRIWSKAHTATASAVEGA  2.72
111. YPCLEKPRIWSLAHTATASANEGA  2.73
112. YPCLEKPRIWSLHHTATASAVEGA  2.74
113. YPCLEKPRIWSLAHAATASAVEGA  2.74
114. YPCLEKPRIWSIAHTATASAVEGA  2.81
115. YPCLEKPRIWSLAHTATVSAVEGA  2.84
116. YPCLEKPRIWSLAHDATASAVEGA  2.85
117. YPCLEKPRIWSLAHTATASNVEGA  2.87
118. YPCLEKPRIWSQAHTATASAVEGA  2.87
119. YPCLEKPRIWSLKHTATASAVEGA  2.9
120. YPCLEKPRIWSDAHTATASAVEGA  2.91
121. YPCLEKPRLWSLAHTATASAVEGA  2.98
122. YPCLEKPRIWSLAHTATAMAVEGA  2.98
123. YPCLEKPRIWSLAHTYTASAVEGA  2.99
124. YPCLEKPRIWSLAHTATYSAVEGA  3
125. YPCLEKPRIWSLAHTNTASAVEGA  3.02
126. YPCLEKPRIWSLAHTATTSAVEGA  3.02
127. YPCLEKPRIWSLAHTATMSAVEGA  3.02
128. YPCLEKPRIWSLAHTATASAVFGA  3.04
129. YPCLEKPRIWSLAHTTTASAVEGA  3.04
130. YPCLEKPNIWSLAHTATASAVEGA  3.06
131. YPCLEKPRIWSLAHTATASKVEGA  3.07
132. YPCLEKPRIWSLAHTATAQAVEGA  3.07
133. YPCLEKPRIWSLAHTATAWAVEGA  3.1
134. YPCLEKPRIWSLAHTATASAVGGA  3.1
135. YPCLEKPRIWSCAHTATASAVEGA  3.12
136. YPCLEKPRIWSLAHTAEASAVEGA  3.16
137. YPCLEKPRAWSLAHTATASAVEGA  3.17
138. YPCLEKPRIWSLAHTATISAVEGA  3.17
139. YPCLEKPRIWSLAHCATASAVEGA  3.17
140. YPCLEKPRICSLAHTATASAVEGA  3.19
141. YPCLEKPRIWSLVHTATASAVEGA  3.26
142. YPCLEKPRIISLAHTATASAVEGA  3.27
143. YPCLEKPRIWSLIHTATASAVEGA  3.27
144. YPCLEKPRIWSLAHTATASAVCGA  3.29
145. YPCLEKPRVWSLAHTATASAVEGA  3.31
146. YPCLEKPRIWSLAHHATASAVEGA  3.31
147. YPCLEKPRIWSLAHTATAFAVEGA  3.32
148. YPCLEKPRIWSLYHTATASAVEGA  3.33
149. YPCLEKPRIWSLAHTATASAWEGA  3.41
150. YPCLEKPRIWSLAHTATPSAVEGA  3.41
151. YPCLEKPRIWSLAVTATASAVEGA  3.43
152. YPCLEKPRIWSLAHTWTASAVEGA  3.44
153. YPCLEKPRDWSLAHTATASAVEGA  3.49
154. YPCLEKPRIWSLAHTATASHVEGA  3.49
155. YPCLEKPRIWSLAHTATASAFEGA  3.51
156. YPCLEKPRIWSLAHKATASAVEGA  3.51
157. YPCLEKPRIWSLAHTATASLVEGA  3.52
158. YPCLEKPRIWSPAHTATASAVEGA  3.53
159. YPCLEKPRIWSLAHTAGASAVEGA  3.55
160. YPCLEKPREWSLAHTATASAVEGA  3.59
161. YPCLEKPRIMSLAHTATASAVEGA  3.65
162. YPCLEKPRILSLAHTATASAVEGA  3.78
163. YPCLEKPRIWSLAHRATASAVEGA  3.79
164. YPCLEKPRIWSLAHTATRSAVEGA  3.8
165. YPCLEKPRIWSLAHTATASAPEGA  3.82
166. YPCLEKPRMWSLAHTATASAVEGA  3.85
167. YPCLEKPRIVSLAHTATASAVEGA  3.85
168. YPCLEKPRIWSLAHTMTASAVEGA  3.88
169. YPCLEKPRIWSLALTATASAVEGA  3.94
170. YPCLEKPRIGSLAHTATASAVEGA  4
171. YPCLEKPRITSLAHTATASAVEGA  4.09
172. YPCLEKPRIWSLAHTATAYAVEGA  4.1
173. YPCLEKPRIDSLAHTATASAVEGA  4.13
174. YPCLEKPRIASLAHTATASAVEGA  4.14
175. YPCLEKPRIQSLAHTATASAVEGA  4.16
176. YPCLEKPRIWSLAFTATASAVEGA  4.18
177. YPCLEKPRIWSLAHTAQASAVEGA  4.21
178. YPCLEKPRIHSLAHTATASAVEGA  4.23
179. YPCLEKPRIWSLAHTVTASAVEGA  4.23
180. YPCLEKPRIRSLAHTATASAVEGA  4.26
181. YPCLEKPRINSLAHTATASAVEGA  4.27
182. YPCLEKPRIWSLAHTETASAVEGA  4.29
183. YPCLEKPRIPSLAHTATASAVEGA  4.3
184. YPCLEKPRIWSLAHTATASYVEGA  4.34
185. YPCLEKPRISSLAHTATASAVEGA  4.42
186. YPCLEKPRIKSLAHTATASAVEGA  4.42
187. YPCLEKPRIESLAHTATASAVEGA  4.71
188. YPCLEKPRIWSLAHTFTASAVEGA  5.06
